The test has as its target tumor suppressor gene 101 (TSG101) tagged with eYFP (UniProt Q99816). The test can be described thus: FRET or BRET. In general terms: Bioluminescence resonance energy transfer reports proximity on the nanometre scale.
Sequence of UniProt Q99816 (Q99816 whole entry): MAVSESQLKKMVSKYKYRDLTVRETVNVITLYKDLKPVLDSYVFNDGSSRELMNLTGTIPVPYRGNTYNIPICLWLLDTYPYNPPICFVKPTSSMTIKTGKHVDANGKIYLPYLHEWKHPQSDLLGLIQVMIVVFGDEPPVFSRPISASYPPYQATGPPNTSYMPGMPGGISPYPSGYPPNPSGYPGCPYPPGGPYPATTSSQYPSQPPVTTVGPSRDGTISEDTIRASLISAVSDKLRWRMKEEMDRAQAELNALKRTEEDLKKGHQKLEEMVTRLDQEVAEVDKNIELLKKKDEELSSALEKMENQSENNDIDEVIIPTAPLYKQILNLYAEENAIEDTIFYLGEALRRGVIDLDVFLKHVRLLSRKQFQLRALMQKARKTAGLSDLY

Turning to “wild-type HEV ORF3 protein (Kernow-C1 P6, genotype 3) tagged with eCFP (natural protein)”, the FRET efficiency was 21.5%.

Source of the values: paper PMC4679584.
